Experimental data from PMC2195602 (The Journal of Experimental Medicine, 1999).

Tests used:
[1] = target: FcγRII (CD32) on K-562 cells (human (endogenous in K-562)) (UniProt P12318); assay: flow cytometry on cells
[2] = target: T1, human FcγRIIa (CD32) expressed on transfected COS-7 cells (human, UniProt P12318 34-317); assay: flow cytometry on cells
T1 sequence (looked up): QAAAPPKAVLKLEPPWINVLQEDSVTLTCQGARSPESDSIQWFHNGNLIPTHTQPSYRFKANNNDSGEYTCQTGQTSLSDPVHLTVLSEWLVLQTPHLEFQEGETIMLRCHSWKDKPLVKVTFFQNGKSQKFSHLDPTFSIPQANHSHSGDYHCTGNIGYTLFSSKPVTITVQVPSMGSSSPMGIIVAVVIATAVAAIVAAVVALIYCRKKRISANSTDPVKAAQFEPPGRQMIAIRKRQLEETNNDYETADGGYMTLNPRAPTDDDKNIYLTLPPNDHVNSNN

Kd [1]: 97 nM
Kd [2]: 66 nM
B1: C-reactive protein (CRP), human (natural protein, UniProt P02741 19-224, looked up)
chain: QTDMSRKAFVFPKESDTSYVSLKAPLTKPLKAFTVCLHFYTELSSTRGYSIFSYATKRQDNEILIFWSKDIGYSFTVGGSEILFEVPEVTVAPVHICTSWESASGIVEFWVDGKPRVRKSLKKGYTVGAEASIILGQEQDSFGGNFEGSQSLVGDIGNVNMWDFVLSPDEINTIYLGGPFSPNVLNWRALKYEVQGEVFTKPQLWP
